Test results as given in patent US6723838.

Molecular target: purified H-ras GST fusion protein [GST: P08515]
Sequence (P08515 whole entry, looked up, the tested form may be a part): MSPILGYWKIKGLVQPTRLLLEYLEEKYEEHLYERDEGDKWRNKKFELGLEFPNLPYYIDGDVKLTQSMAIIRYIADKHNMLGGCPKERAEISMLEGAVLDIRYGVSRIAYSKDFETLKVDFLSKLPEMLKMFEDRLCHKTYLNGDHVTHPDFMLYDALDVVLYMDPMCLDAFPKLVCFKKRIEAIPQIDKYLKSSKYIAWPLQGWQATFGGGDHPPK

B1: GST fusion protein of the GAP domain (266-521) of SYNGAP (protein)
chain: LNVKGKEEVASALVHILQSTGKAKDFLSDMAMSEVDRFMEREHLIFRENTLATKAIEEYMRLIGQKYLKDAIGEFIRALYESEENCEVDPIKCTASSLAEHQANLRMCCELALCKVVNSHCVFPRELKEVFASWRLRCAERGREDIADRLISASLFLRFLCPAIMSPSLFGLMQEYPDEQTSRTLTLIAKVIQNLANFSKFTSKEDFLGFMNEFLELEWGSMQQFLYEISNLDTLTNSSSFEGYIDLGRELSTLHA
- GTPase activity of Ras ([gamma-32P]-GTP filter assay): addition of the GST fusion protein of the GAP domain of SYNGAP dramatically stimulated the GTPase activity of Ras
